The record followed here is PMC7135905 (Biochemical Journal, 2020).

Assay in all cases: native MS
Data set [1] deals with the molecule itself.
Data set [2] concerns the molecule itself. The source holds these as a separate data set.
Data set [3] deals with the molecule itself. This is another data set of the same source.
Data set [4] concerns the molecule itself. The source holds these as a separate data set.
Data set [5] concerns the molecule itself. The source holds these as a separate data set.
Data set [6] concerns the molecule itself. This is another data set of the same source.

Read-outs that look alike come from different tables or passages of the source.

B1: CtRocCOR (RocCOR construct of the Roco protein from Chlorobium tepidum, a.a. 412-946) (domain or fragment)
chain: DNPLESPPPEIVKQGKEAVRQYFQSIEEARSKGEALVHLQEIKVHLIGDGMAGKTSLLKQLIGETFDPKESQTHGLNVVTKQAPNIKGLENDDELKECLFHFWDFGGQEIMHASHQFFMTRSSVYMLLLDSRTDSNKHYWLRHIEKYGGKSPVIVVMNKIDENPSYNIEQKKINERFPAIENRFHRISCKNGDGVESIAKSLKSAVLHPDSIYGTPLAPSWIKVKEKLVEATTAQRYLNRTEVEKICNDSGITDPGERKTLLGYLNNLGIVLYFEALDLSEIYVLDPHWVTIGVYRIINSSKTKNGHLNTSALGYILNEEQIRCDEYDPAKNNKFTYTLLEQRYLLDIMKQFELCYDEGKGLFIIPSNLPTQIDNEPEITEGEPLRFIMKYDYLPSTIIPRLMIAMQHQILDRMQWRYGMVLKSQDHEGALAKVVAETKDSTITIAIQGEPRCKREYLSIIWYEIKKINANFTNLDVKEFIPLPGHPDELVEYKELLGLEKMGRDEYVSGKLEKVFSVSKMLDSVISKEERNKER
B1: the “percent dimer (dimer/monomer ratio)” value is about 90% in data set [1]; about 97% in data set [2]; about 26% in data set [3]; about 20% in data set [4]; about 87% in data set [5]; about 38% in data set [6]. Further, the “stoichiometry N” value in data set [2] was 2.

B2: CtRocCOR L487A mutant (domain or fragment)
chain: DNPLESPPPEIVKQGKEAVRQYFQSIEEARSKGEALVHLQEIKVHLIGDGMAGKTSLLKQLIGETFDPKESQTHGANVVTKQAPNIKGLENDDELKECLFHFWDFGGQEIMHASHQFFMTRSSVYMLLLDSRTDSNKHYWLRHIEKYGGKSPVIVVMNKIDENPSYNIEQKKINERFPAIENRFHRISCKNGDGVESIAKSLKSAVLHPDSIYGTPLAPSWIKVKEKLVEATTAQRYLNRTEVEKICNDSGITDPGERKTLLGYLNNLGIVLYFEALDLSEIYVLDPHWVTIGVYRIINSSKTKNGHLNTSALGYILNEEQIRCDEYDPAKNNKFTYTLLEQRYLLDIMKQFELCYDEGKGLFIIPSNLPTQIDNEPEITEGEPLRFIMKYDYLPSTIIPRLMIAMQHQILDRMQWRYGMVLKSQDHEGALAKVVAETKDSTITIAIQGEPRCKREYLSIIWYEIKKINANFTNLDVKEFIPLPGHPDELVEYKELLGLEKMGRDEYVSGKLEKVFSVSKMLDSVISKEERNKER
Consider B2, for which the “percent dimer (dimer/monomer ratio)” value was about 100% in data set [1], about 96% in data set [3], about 11% in data set [4] and about 85% in data set [6].

In general, stoichiometry N refers to the number of molecules, sites or subunits per partner or assembly.
